Target: human OSM (recombinant, mammalian-cell derived, OSMN1-1) (human) (UniProt P13725)
Assay: cell-based or functional assay

Sequence of human OSM (recombinant, mammalian-cell derived, OSMN1-1) (human) (P13725 26-221 limits assumed): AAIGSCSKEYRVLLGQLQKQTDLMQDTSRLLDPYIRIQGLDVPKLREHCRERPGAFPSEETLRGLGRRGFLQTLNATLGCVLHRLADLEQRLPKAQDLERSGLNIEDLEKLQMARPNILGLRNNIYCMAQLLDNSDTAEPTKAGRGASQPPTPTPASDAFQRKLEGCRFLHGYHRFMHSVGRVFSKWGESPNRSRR

Question: Which pSTAT3 inhibition EC50 (A375 cells, 5 ng/ml hOSM) does the source give for MAB295 (R&D Systems) (antibody) here?
Answer: Its pSTAT3 inhibition EC50 (A375 cells, 5 ng/ml hOSM) is 72.1 ng/ml.
